The supplement of paper PMC7877785
± gives the uncertainty stated by the source.

Test: self-splicing fitness, log relative to wild type (ln ratio); higher = more splicing; Tetrahymena group I intron in knt gene, E. coli kanamycin selection, DiMSum; sequences stand for … in CUCUCU…GGAGGGAAAAGUUAUCAGGCAUGCACCUGGUAGCUAGUCUUUAAACCAAUAGAUUGCAUCGGUUUAAAAGGCAAGACCGUCAAAUUGCGGGAAAGGGGUCAACAGCCGUUCAGUACCAAGUCUCAGGGGAAACUUUGAGAUGGCCUUGCAAAGGGUAUGGUAAUAAGCUGACGGACAUGGUCCUAACCACGCAGCCAAGUCCUAAGUCAACAGAUCUUCUGUUGAUAUGGAUGCAGUUCACAGACUAAAUGUCGGUCGGGGAAGAUGUAUUCUUCUCAUAAGAUAUAGUCGGACCUCUCCUUAAUGGGAGCUAGCGGAUGAAGUGAUGCAACACUGGAGCCGCUGGGAACUAAUUUGUAUGCGAAAGUAUAUUGAUUAGUUUUGGAGUACUCGUGGUCG
Summary of the method: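 Pooled colonies went to amplicon sequencing on an Illumina HiSeq 2500 after six replicate transformations. The plates were LB agar with 100 μg/mL carbenicillin, 50 μM IPTG and 0.2% rhamnose, with or without 25 μg/mL kanamycin, incubated overnight at 37°C or 30°C. The E. coli BL21(DE3) library had all eight P1ex-region intron nucleotides randomised, the intron placed in the knt kanamycin-resistance gene on pET-22b(+). DiMSum fitness is the error-weighted combination of replicate fold changes, kanamycin against none, normalised to wild type.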

Row | Sequence | self-splicing fitness (ln) (30 °C) | self-splicing fitness (ln) (37 °C)
1 | AUUAAGCAAUAUUACGACCG | -1.51 ± 0.1 | -0.619 ± 0.16
2 | GUGUAGCAAUAUUACGACAG | -2.07 ± 0.42 | –
3 | CAUGAGCAAUAUUACGAUCG | -0.0708 ± 0.12 | -0.399 ± 0.14
4 | GGCGAGCAAUAUUACGGACU | -0.419 ± 0.077 | -0.219 ± 0.13
5 | AGUGAGCAAUAUUACGGGCG | -1.04 ± 0.19 | -0.922 ± 0.27
6 | AACCAGCAAUAUUACGGUCC | -0.721 ± 0.089 | -0.491 ± 0.12
7 | GACGAGCAAUAUUACGAAAC | -4.29 ± 0.3 | -3.14 ± 0.28
8 | AUACAGCAAUAUUACGACCU | 0.331 ± 0.084 | 0.122 ± 0.094
9 | ACUUAGCAAUAUUACGUCAA | -4.05 ± 0.33 | -3.36 ± 0.3
10 | UAAUAGCAAUAUUACGGCCU | -1.16 ± 0.14 | -0.77 ± 0.19
11 | CAUAAGCAAUAUUACGUUGA | -3.55 ± 0.16 | -2.85 ± 0.16
12 | CCGCAGCAAUAUUACGAACC | -1.84 ± 0.39 | –
13 | AUUAAGCAAUAUUACGCUCA | -0.292 ± 0.068 | -0.258 ± 0.091
14 | CUCUAGCAAUAUUACGCUUC | -2.62 ± 0.27 | -2.39 ± 0.34
15 | GCCAAGCAAUAUUACGCCAG | -3.37 ± 0.21 | -2.88 ± 0.24
16 | GGAGAGCAAUAUUACGAAAC | -2.48 ± 0.29 | -1.36 ± 0.47
17 | GAUUAGCAAUAUUACGAGAG | -3.5 ± 0.25 | -1.83 ± 0.18
18 | GUAGAGCAAUAUUACGUGCU | – | -1.29 ± 0.39
19 | UUUGAGCAAUAUUACGUGCA | -3.05 ± 0.21 | -1.96 ± 0.18
20 | GCGAAGCAAUAUUACGUCUC | -2.04 ± 0.12 | -1.41 ± 0.14
21 | CACUAGCAAUAUUACGCAAU | -1.48 ± 0.15 | -3.09 ± 0.35
22 | GUCGAGCAAUAUUACGCGGC | -3.88 ± 0.47 | -2.25 ± 0.39
23 | GAUCAGCAAUAUUACGCUUU | -1.02 ± 0.08 | -0.877 ± 0.11
24 | ACUGAGCAAUAUUACGGGAU | -3.03 ± 0.17 | -2.18 ± 0.22
25 | CAAAAGCAAUAUUACGAACU | -2.51 ± 0.19 | -1.3 ± 0.21

Row | Sequence | self-splicing fitness (ln) (30 °C) | self-splicing fitness (ln) (37 °C)
26 | CGUAAGCAAUAUUACGUAGC | -4.38 ± 0.36 | -1.62 ± 0.26
27 | ACCGAGCAAUAUUACGUUAG | -4.03 ± 0.15 | -2.65 ± 0.15
28 | GACUAGCAAUAUUACGCUGC | -3.53 ± 0.21 | -2.85 ± 0.28
29 | CCGAAGCAAUAUUACGCCUU | -3.35 ± 0.36 | -1.21 ± 0.3
30 | UCUCAGCAAUAUUACGGCCG | – | -2.73 ± 0.38
31 | UCAUAGCAAUAUUACGUAUG | -3.28 ± 0.16 | -2.09 ± 0.11
32 | UUUGAGCAAUAUUACGAACC | -2.5 ± 0.35 | –
33 | GGUUAGCAAUAUUACGUCGA | -1.43 ± 0.14 | -0.492 ± 0.14
34 | CAAGAGCAAUAUUACGAAAC | -2.91 ± 0.36 | –
35 | ACUGAGCAAUAUUACGACUU | -1.4 ± 0.11 | -0.511 ± 0.14
36 | UUUUAGCAAUAUUACGAUGU | -2.19 ± 0.23 | -1.6 ± 0.16
37 | CUCUAGCAAUAUUACGUGAA | -3.77 ± 0.21 | -3.07 ± 0.25
38 | AACCAGCAAUAUUACGGGCC | -1.4 ± 0.082 | -0.824 ± 0.11
39 | ACACAGCAAUAUUACGCCGG | -1.36 ± 0.09 | -0.466 ± 0.11
40 | CUGUAGCAAUAUUACGGAUU | -3.48 ± 0.28 | -2.7 ± 0.33
41 | GCACAGCAAUAUUACGACCC | 0.615 ± 0.18 | 0.472 ± 0.25
42 | CCUGAGCAAUAUUACGGCGU | -3.51 ± 0.2 | -2.88 ± 0.19
43 | ACACAGCAAUAUUACGCGCA | -0.103 ± 0.064 | 0.225 ± 0.079
44 | UGGGAGCAAUAUUACGAUCA | -0.66 ± 0.22 | -0.124 ± 0.19
45 | CAAGAGCAAUAUUACGGCCU | -3.5 ± 0.25 | -1.27 ± 0.33
46 | UUGGAGCAAUAUUACGUAUG | -3.25 ± 0.36 | -1.36 ± 0.37
47 | ACGUAGCAAUAUUACGGGUA | -1.29 ± 0.13 | -0.928 ± 0.12
48 | CUCAAGCAAUAUUACGGGGG | -4.01 ± 0.23 | -2.88 ± 0.2
49 | UCUAAGCAAUAUUACGAGCC | -2.34 ± 0.34 | –
50 | CGCGAGCAAUAUUACGAGUC | -2.7 ± 0.38 | -1.57 ± 0.29
